The text below walks through data of FireProtDB (doi:10.1021/bi992119u).

The conditions of the data set: Pseudomonas putida; pH 7; 25 °C; Urea; CD; Sodium phosphate 25 mM; reversible: yes; whole UniProt chain shown.

B1: Steroid Delta-isomerase wild type, P07445 (protein)
chain: MNLPTAQEVQGLMARYIELVDVGDIEAIVQMYADDATVEDPFGQPPIHGREQIAAFYRQGLGGGKVRACLTGPVRASHNGCGAMPFRVEMVWNGQPCALDVIDVMRFDEHGRIQTMQAYWSEVNLSVREPQ
Consider B1, for which the denaturant m value was 3.39 kcal/mol/M, the “denaturant midpoint (higher = more stable)” value amounted to 5.22 M and the unfolding free energy is 24.3 kcal/mol.
